B1: Phage-2120 (peptide)
peptide: EIHLCKPPWMCDWL
notes: Clonal phage of the peptide-180 library
B2: Phage-2117 (peptide)
peptide: EIKWCVPQWMCENQ
notes: as for B1
B3: Phage-2118 (peptide)
peptide: EMIWCRPAWMCEGI
notes: as for B1
B4: Phage-2130 (peptide)
peptide: LVKWCTPPWMCESQ
notes: as for B1
B5: Phage-2126 (peptide)
peptide: SDKWCIPPWMCEVA
notes: as for B1
B6: Phage-2123 (peptide)
peptide: EIKWCRPGWMCKVR
notes: as for B1
B7: Phage-2127 (peptide)
peptide: WDKWCIPEWMCVTQ
notes: as for B1
B8: Phage-2125 (peptide)
peptide: EFKWCTPPWMCQWD
notes: as for B1
B9: Phage-2129 (peptide)
peptide: PLPWCIPVWMCSMI
notes: as for B1
B10: Phage-2124 (peptide)
peptide: ILKACIPDWMCEGS
notes: as for B1
B11: Phage-2119 (peptide)
peptide: YAKWCIPEWMCAVS
notes: as for B1
B12: Phage-2121 (peptide)
peptide: AEKWCIPPWMCEWV
notes: as for B1
B13: Phage-2128 (peptide)
peptide: DGLLCRPLWMCQFL
notes: as for B1
B14: Phage-2122 (peptide)
peptide: VTAWCIPEWMCVGV
notes: as for B1
B15: Phage-2131 (peptide)
peptide: LMKWCIPDWMCSHV
notes: as for B1
B16: Phage-2140 (peptide)
peptide: EHKWCIPSWMCADM
B17: Phage-2144 (peptide)
peptide: AEKWCIPNWMCEAG
B18: Phage-2133 (peptide)
peptide: FEMLCTPPWMCVGL
B19: Phage-2134 (peptide)
peptide: EGKWCIPEWMCSAS
B20: Phage-2142 (peptide)
peptide: IPKWCTPVWMCEGM
B21: Phage-2146 (peptide)
peptide: SAPWCIPEWMCFSL
B22: Phage-2137 (peptide)
peptide: VLKWCIPTWMCETQ
B23: Phage-2139 (peptide)
peptide: LEKWCTPSWMCIGI
B24: Phage-2143 (peptide)
peptide: VWHWCTPPWMCNAE
B25: Phage-2135 (peptide)
peptide: TERWCVPAWMCTLV
B26: Phage-2141 (peptide)
peptide: EMKLCRPAWMCEYM
B27: Phage-2138 (peptide)
peptide: VQKWCIPEWMCAVA
B28: Phage-2145 (peptide)
peptide: MVNWCTPPWMCWGF
B29: Phage-2136 (peptide)
peptide: VYKWCTPPWMCTQM
B30: Phage-2132 (peptide)
peptide: DANWCKPTWMCAGF
B31: Phage-2149 (peptide)
peptide: ITNWCKPAWMCEVS
notes: Clonal phage of the Peptide-180 library, tested as crude supernatant; not shown: fused to the pIII filament of the bacteriophage
B32: Phage-2148 (peptide)
peptide: IMKLCMPPWMCAAM
notes: as for B31
B33: Phage-2151 (peptide)
peptide: YEIRCIPPWMCAFD
notes: as for B31
B34: Phage-2147 (peptide)
peptide: VEKWCIPQWMCVSQ
notes: as for B31
B35: Phage-2150 (peptide)
peptide: VHIWCIPQWMCMDR
notes: as for B31
B36: Phage-2152 (peptide)
peptide: IEKWCTPAWMCYGI
notes: as for B31
B37: Phage-2115 (peptide)
peptide: GEIWCIPRWMCESF
B38: Phage-2116 (peptide)
peptide: WENWCTPSWMCSVL

The binders below were run against T1, Anti-PSMA Fab (SEQ ID NOs: 19, 20) (assay: phage ELISA; PSMA Fab on plate pre-incubated with PSMA antigen as competitor, anti-M13 HRP).
T1 construct: Biotinylated Fab captured on neutravidin coated plates in the phage ELISA; also called 006 PSMA Fab
Procedure: (§1) Clonal phage were harvested as crude supernatants and screened via standard ELISAs. […] Prior to the addition of clonal phage. wells were incubated with blocking buffer and PSMA antigen or blocking buffer alone. Without washing or aspirating, clonal phage supernatants were then added to the wells and incubated for a short time. Wells were then washed followed by detection of bound phage using a horse radish conjugated anti-M13 antibody.
B1 was tested, and the “Phage binding ELISA, Anti-PSMA Fab signal in the presence of PSMA” value (“Phage binding ELISA … of PSMA” for short) was 0.109.
B2 was tested, and the “Phage binding ELISA … of PSMA” value was 0.0643.
For B3, the “Phage binding ELISA … of PSMA” value was 0.0702.
For B4, the “Phage binding ELISA … of PSMA” value was 0.0701.
B5 was tested, and the “Phage binding ELISA … of PSMA” value was 0.0724.
In the case of B6, the “Phage binding ELISA … of PSMA” value is reported as 0.0583.
For B7, the “Phage binding ELISA … of PSMA” value was 0.1.
For B8, the “Phage binding ELISA … of PSMA” value was 0.101.
With B9 the “Phage binding ELISA … of PSMA” value was 0.161.
In the case of B10, the “Phage binding ELISA … of PSMA” value is reported as 0.0604.
B11 was tested, and the “Phage binding ELISA … of PSMA” value was 0.12.
With B12 the “Phage binding ELISA … of PSMA” value was 0.105.
B13 was tested, and the “Phage binding ELISA … of PSMA” value was 0.0771.
With B14 the “Phage binding ELISA … of PSMA” value was 0.0929.
For B15, the “Phage binding ELISA … of PSMA” value was 0.0763.

These binders were tested against T2, Anti-PSMA Fab (SEQ ID NOs: 19, 20) (assay: phage ELISA; biotinylated PSMA Fab on neutravidin plate, clonal phage supernatant, anti-M13-HRP detection;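 further: wells were preincubated with blocking buffer containing PSMA antigen or with blocking buffer only, then phage supernatant was added without washing for a brief incubation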).
T2 construct: also called 006 PSMA Fab
Procedure: as §1
For B16, the “Phage binding ELISA, Anti-PSMA Fab (SEQ ID NOs: 19, 20) signal” value was 1.69.
For B17, the “Phage binding ELISA, Anti-PSMA Fab (SEQ ID NOs: 19, 20) signal” value was 1.69.
In the case of B18, the “Phage binding ELISA, Anti-PSMA Fab (SEQ ID NOs: 19, 20) signal” value is reported as 1.7.
In the case of B19, the “Phage binding ELISA, Anti-PSMA Fab (SEQ ID NOs: 19, 20) signal” value is reported as 1.7.
For B20, the “Phage binding ELISA, Anti-PSMA Fab (SEQ ID NOs: 19, 20) signal” value was 1.69.
In the case of B21, the “Phage binding ELISA, Anti-PSMA Fab (SEQ ID NOs: 19, 20) signal” value is reported as 1.69.
With B22 the “Phage binding ELISA, Anti-PSMA Fab (SEQ ID NOs: 19, 20) signal” value was 1.7.
For B23, the “Phage binding ELISA, Anti-PSMA Fab (SEQ ID NOs: 19, 20) signal” value was 1.7.
B24 was tested, and the “Phage binding ELISA, Anti-PSMA Fab (SEQ ID NOs: 19, 20) signal” value was 1.69.
In the case of B25, the “Phage binding ELISA, Anti-PSMA Fab (SEQ ID NOs: 19, 20) signal” value is reported as 1.7.
B26 was tested, and the “Phage binding ELISA, Anti-PSMA Fab (SEQ ID NOs: 19, 20) signal” value was 1.69.
B27 was tested, and the “Phage binding ELISA, Anti-PSMA Fab (SEQ ID NOs: 19, 20) signal” value was 1.7.
With B28 the “Phage binding ELISA, Anti-PSMA Fab (SEQ ID NOs: 19, 20) signal” value was 1.69.
In the case of B29, the “Phage binding ELISA, Anti-PSMA Fab (SEQ ID NOs: 19, 20) signal” value is reported as 1.7.
With B30 the “Phage binding ELISA, Anti-PSMA Fab (SEQ ID NOs: 19, 20) signal” value was 1.7.

Each binder was assayed against T3, Anti-PSMA Fab (SEQ ID NOs: 19, 20) (assay: phage ELISA; PSMA Fab on plate pre-incubated with PSMA antigen as competitor, anti-M13 HRP detection;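 further: crude clonal phage supernatants added to Fab-coated wells still holding PSMA antigen in blocking buffer, with bound phage as read-out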).
T3 construct: Biotinylated PSMA Fab captured on neutravidin coated plates in the phage ELISA; also called 006 PSMA Fab
Procedure: as §1
With B31 the “Phage binding ELISA … of PSMA” value was 0.114.
B32 was tested, and the “Phage binding ELISA … of PSMA” value was 0.0907.
For B33, the “Phage binding ELISA … of PSMA” value was 0.117.
In the case of B34, the “Phage binding ELISA … of PSMA” value is reported as 0.0673.
B35 was tested, and the “Phage binding ELISA … of PSMA” value was 0.202.
B36 was tested, and the “Phage binding ELISA … of PSMA” value was 0.077.

The binders below were run against T3, Anti-PSMA Fab (SEQ ID NOs: 19, 20) (assay: phage ELISA; biotinylated PSMA Fab on neutravidin plate, clonal phage supernatant, anti-M13 HRP detection;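 further: wells preincubated with PSMA antigen in blocking buffer or with blocking buffer only before clonal phage were added for a short incubation, then bound phage detected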).
Procedure: as §1
For B31, the “Phage binding ELISA, Anti-PSMA Fab (SEQ ID NOs: 19, 20) signal” value was 1.68.
B32 was tested, and the “Phage binding ELISA, Anti-PSMA Fab (SEQ ID NOs: 19, 20) signal” value was 1.68.
B33 was tested, and the “Phage binding ELISA, Anti-PSMA Fab (SEQ ID NOs: 19, 20) signal” value was 1.68.
With B34 the “Phage binding ELISA, Anti-PSMA Fab (SEQ ID NOs: 19, 20) signal” value was 1.69.
For B35, the “Phage binding ELISA, Anti-PSMA Fab (SEQ ID NOs: 19, 20) signal” value was 1.68.
In the case of B36, the “Phage binding ELISA, Anti-PSMA Fab (SEQ ID NOs: 19, 20) signal” value is reported as 1.68.

Each binder was assayed against T4, Anti-PSMA Fab (SEQ ID NOs: 19, 20) (assay: phage binding ELISA; biotinylated anti-PSMA Fab on neutravidin plate, PSMA antigen as competitor, anti-M13 HRP detection).
T4 construct: Biotinylated and captured on neutravidin coated plates in the phage ELISA; also called 006 PSMA Fab
Procedure: as §1
B37 was tested, and the “Anti-PSMA Fab signal in the presence of PSMA” value was 0.0672.
B38 was tested, and the “Anti-PSMA Fab signal in the presence of PSMA” value was 0.118.

What follows are binders tested against T4, Anti-PSMA Fab (SEQ ID NOs: 19, 20) (assay: phage binding ELISA; biotinylated anti-PSMA Fab on neutravidin plate, clonal phage supernatant, anti-M13 HRP detection).
Procedure: as §1
In the case of B37, the “Anti-PSMA Fab (SEQ ID NOs: 19, 20) signal” value is reported as 1.72.
In the case of B38, the “Anti-PSMA Fab (SEQ ID NOs: 19, 20) signal” value is reported as 1.72.

What follows are binders tested against T1, Anti-PSMA Fab (SEQ ID NOs: 19, 20) (assay: phage ELISA; biotinylated PSMA Fab on neutravidin plate, bound phage detected with anti-M13 HRP).
Procedure: as §1
For B1, the “Phage binding ELISA, Anti-PSMA Fab signal” value was 1.72.
In the case of B2, the “Phage binding ELISA, Anti-PSMA Fab signal” value is reported as 1.72.
In the case of B3, the “Phage binding ELISA, Anti-PSMA Fab signal” value is reported as 1.72.
In the case of B4, the “Phage binding ELISA, Anti-PSMA Fab signal” value is reported as 1.71.
For B5, the “Phage binding ELISA, Anti-PSMA Fab signal” value was 1.71.
For B6, the “Phage binding ELISA, Anti-PSMA Fab signal” value was 1.71.
For B7, the “Phage binding ELISA, Anti-PSMA Fab signal” value was 1.71.
In the case of B8, the “Phage binding ELISA, Anti-PSMA Fab signal” value is reported as 1.71.
For B9, the “Phage binding ELISA, Anti-PSMA Fab signal” value was 1.71.
B10 was tested, and the “Phage binding ELISA, Anti-PSMA Fab signal” value was 1.71.
With B11 the “Phage binding ELISA, Anti-PSMA Fab signal” value was 1.72.
With B12 the “Phage binding ELISA, Anti-PSMA Fab signal” value was 1.71.
For B13, the “Phage binding ELISA, Anti-PSMA Fab signal” value was 1.71.
With B14 the “Phage binding ELISA, Anti-PSMA Fab signal” value was 1.71.
With B15 the “Phage binding ELISA, Anti-PSMA Fab signal” value was 1.71.

What follows are binders tested against T2, Anti-PSMA Fab (SEQ ID NOs: 19, 20) (assay: phage ELISA; biotinylated PSMA Fab on neutravidin plate pre-incubated with PSMA antigen as competitor, anti-M13-HRP detection).
Procedure: as §1
With B16 the “Phage binding ELISA … of PSMA” value was 0.108.
B17 was tested, and the “Phage binding ELISA … of PSMA” value was 0.0588.
For B18, the “Phage binding ELISA … of PSMA” value was 0.0639.
With B19 the “Phage binding ELISA … of PSMA” value was 0.0777.
With B20 the “Phage binding ELISA … of PSMA” value was 0.0647.
For B21, the “Phage binding ELISA … of PSMA” value was 0.101.
B22 was tested, and the “Phage binding ELISA … of PSMA” value was 0.0908.
In the case of B23, the “Phage binding ELISA … of PSMA” value is reported as 0.0773.
B24 was tested, and the “Phage binding ELISA … of PSMA” value was 0.141.
With B25 the “Phage binding ELISA … of PSMA” value was 0.0741.
For B26, the “Phage binding ELISA … of PSMA” value was 0.0727.
For B27, the “Phage binding ELISA … of PSMA” value was 0.0584.
With B28 the “Phage binding ELISA … of PSMA” value was 0.194.
B29 was tested, and the “Phage binding ELISA … of PSMA” value was 0.0779.
B30 was tested, and the “Phage binding ELISA … of PSMA” value was 0.109.

From patent US20260242478A1 (published 2026)
